Reference: paper PMC4618232 (Nature chemical biology, 2015)

B1: mouse XXYLT1 (Xylosideα1–3 Xylosyltransferase), soluble domain S43–D392 after limited proteolysis with trypsin (enzyme, UniProt Q3U4G3 93-391, looked up)
chain: VVPVDYHLLMMFTKAEHNAPLQAKARVALSSLLRLAKFEAHEVLNLHFVSEEASREVAKALLRELLPPAAGFKCKVIFHDVAVLTDKLFPVVEAMQKYFSAGSGTYYSDSIFFLSVAMHQIMPKEIPRIIQLDLDLKYKTNIRELFEEFDNFLPGAVIGIAREMQPVYRHTFWQFRHENPKTRVGDPPPEGLPGFNSGVMLLNLEAMRQSPLYSHLLEPSWVQQLADKYHFRGHLGDQDFFTMIGMEHPELFHVLDCTWNRQLCTWWRDHGYSDVFQAYFRCEGHVKIYHGNCNTPIPE
B2: human factor IX (hFA9) EGF repeat modified with the Xyl-Glc disaccharide (domain or fragment)
chain: VDGDQCESNPCLNGGSCKDDINSYECWCPFGFEGKNCEL
modifications: Xyl-Glc disaccharide on Ser53
B3: human factor IX (hFA9) EGF repeat with the Xyl-Xyl-Glc trisaccharide (product of XXYLT1) (domain or fragment)
chain: B2 chain
modifications: Xyl-Xyl-Glc trisaccharide on Ser53

Experiments:
crystal structure = biological target: the molecule itself; experiment: crystal structure
[1] = biological target: B1; experiment: SEC
[2] = biological target: B1; experiment: crystal structure

B1
stoichiometry N (crystal structure): 2

B2
binding result [1]: binds

B3
binding result [2]: binds
